This is an account of results in a protein production outcome set (Wang et al. 2014).

The data set is described as follows: label from the status in PepcDB records.
For “MISVTAYEWIGLFIGMIIGGLAEAWGISNPEVLIRLGKWEDRLFIGCIAIAIGAGAIVLYGLSALGVSFHWGIKPDYVIGVALGGIIFGTGIAISGYVPGTVWMALGEGRRDAIYAVLGGLLGAASWTLIYQTSFGHWLTTYLNFGQIYFGGKVGTDLKLGFIIAIVWAIIMFVIAYTLPRYRKGKSCAYLSTHKNYKLDAEEEKEYIETANFLMEGTSMPIGKNNLPEKVNYHWTVSSKLFGVTMLSVGIIIGLTVVLEMFLHQIFGESTTYSWIVAQIWLPAGYWQYSTIVVHTIGWEPFSDIGTLFGAFLASIFFTRRFQAFSNVIPPSWKERFGNSQIKRAAGAFSGAYLMLLGARMADGCASGHILSGDLQMAVSSLEFFIFVVIFLLLVAHIIYRR”, the protein production result is “failed”.
As for “MDFGKPNQVTVNYLDENKTPIAPSLYLSGLFNEAYNVPMKKIKGYTLLKYDSEILGVFTESPQTINIIYQKKAPEQALEHHHHHH”, the protein production entry was “failed”.
The result for “MYCKGRREREAYIVVKIDLITGFLGSGKTTFIRKYVKYLVDKGYNVGILENDYGAVNVDMMLLQDLMGPNCHAEMVAGGCGEDCHKRRFKTKLIAMGMSGYDRVIVEPSGIFDVDEFFDTLHEEPLDRWYEVGSIIAIVDAKLDTDMSRQSRYVLASEIANCGALVMSKTSGVSEDEISHTKEFVNKTLEEFQCRRRFDGDVITKAWELFGSEDYERFMSVGYKLNDFTKLWFKQSDVYSSVYIMNRNFTREQLVDIVNRVFSDKDCGDVFRIKGFFSVEQDSWLELNATVHKTEIKPIDKGQKIIIIIGSDLMEDKIKQYFEE” reads “failed”; that for “MAESVRLPTPYNRKTEIRPMFTEIILFLLDTVFTLFGMALLLRLWMQLSRLPSRNPVSQGVFQVTDWIVRPLRRIIPGLGGIDWATVFAAYLTAVAFLLCRALVLGADPLGFLPVILALGVLSMLKWGISMVMWVTLLMAVLSWVNPNSPLAAPIWHLTAPLLRPIQRVVPRLGGFDISPLILFVIAQILLMVIANVSRGVA”, “failed”.
In the case of “MIIEYLQLVGLGLVTMLPVANPLTSTTLLLALGSGFTRDERNRQIGRATVYVAAIILASFYAGNAIISSFGISIPGLRIAGGLIVAYIGFTMLFPATSQNEAQAQVEMAPDDPHIQVPGAAHTGPRPRDISFVPLALPGTAGPGTIALIISSASTLHSHGGITLIHHFAVITVTLLLALLFWACLRSAERVMRMLGQSGIDAISRVMGFLLICMGVQFIIDGVFELIRHPPGA”, the protein production result is reported as “failed”.
The result for “MNLAVTVLEIVAPVFLLAAVGFGWVRMGFEYRLQFVTRLGTMLAVPCLIFVALMKTEIPGGDLSRFTLASALAILALTVVFGLIVRFSGLDRRTYLPPLLFGNTGNLGLPLCMFAFGIEGLSYAVVFFSLSALWSFSYGIHVVAGQGSLSKVVREPMVWATLLGALFLSQDWQTPRFLTNALELIGQMAVPLMLITLGVAMARLSIRRIGQALGLSLLKLAICFPVGWLVAQGFGLSGPALGVLVVQMSVPAAVSAYLLAERFGADADAVAGMVMVSTLLAVGALPLVLAAVL” reads “failed”; that for “MIIVTGATGKLGRRIVERLLERVPADRVGVSVRDPRKAQDLADRGVRVRQGSFDDPASLVHAFEGAEQLLLVSLDRTGQECVSGHRAAIDAAVKAGVGRILYTSQMGAAHDSRFQACRDHAQTEDLLRATGLPWTALRNGFYASSALQFLESARHTGDIALPADGPVAWTGHDDLAEATAAILAEEHRFEGPTPPLTGPAALDFDTVAEIASQTTGRPFTRTVVPDDAFREQVLAHGAPAPIGNLMLSIFAAARNGEFTAVDSTLAELIGREPATFRTQLEHAWAE”, “failed”.
On to “MADKAVADRTIEGLTRAGAAMAAGEIDQAAAHLQAAAQLCPDEPMIWALLGEVLLLLDRPQDGLGALDRALALAPEDPRPRFHRARAFERLDRLAEALADQEALAILCANKAEVWHNLGLLRRAGGDPSGAEAAFGRALALEPSRAESALALAHSLLGRAAWAEGFAHYEARLSLPGWQRPAPLPGRRWRGEDPAGRTLLVSAEQGLGDGVQFLRYLPLIKGAGKVIVECHPPLRRLIAAQPGVDATIAFGEAIPDLGAEGLTIPLASLALPLAGGAPLGERIPYVSKPRLRPQGDRPRIGLAWRSSDRAELRRDPPLAALAALAAIPAVDWVSLQFAPTDYPALPLDLRPMASVDDLDDTAALIADLDLVISVDTAVAHLAGAMGKPLWVLLGPRADWRWTASAQSSPWYPSCVPFFHGAEGWPGVIAAVSERLKAAFNGPPAR”, for which the protein production result is recorded as “failed”.
Next, “MGANLNSAYAAGVKIAIVMGSKSDWATMQFAADVLTTLNVPFHVEVVSAHRTPDRLFSFAEQAEANGLHVIIAGAGGAAHLPGMLAAKTLVPVLGVPVQSAALSGVDSLYSIVQMPRGIPVGTLAIGKAGAANAALLAAQILALHDTELAGRLAHWRQSQTDDVLDNPDPREEA”: “not failed”; “MEIFGKTFREGRFVLKEKNFTVEFAVEKIHLGWKISGRVKGSPGRLEVLRTKAPEKVLVNNWQSWGPCRVVDAFSFKPPEIDPNWRYTASVVPDVLERNLQSDYFVAEEGKVYGFLSSKIAHPFFAVEDGELVAYLEYFDVEFDDFVPLEPLVVLEDPNTPLLLEKYAELVGMENNARVPKHTPTGWCSWYHYFLDLTWEETLKNLKLAKNFPFEVFQIDDAYEKDIGDWLVTRGDFPSVEEMAKVIAENGFIPGIWTAPFSVSETSDVFNEHPDWVVKENGEPKMAYRNWNKKIYALDLSKDEVLNWLFDLFSSLRKMGYRYFKIDFLFAGAVPGERKKNITPIQAFRKGIETIRKAVGEDSFILGCGSPLLPAVGCVDGMRIGPDTAPFWGEHIEDNGAPAARWALRNAITRYFMHDRFWLNDPDCLILREEKTDLTQKEKELYSYTCGVLDNMIIESDDLSLVRDHGKKVLKETLELLGGRPRVQNIMSEDLRYEIVSSGTLSGNVKIVVDLNSREYHLEKEGKSSLKKRVVKREDGRNFYFYEEGERE”: “not failed”.
“MKTYTSVIFWMRTIACLSIVLIHSITTTFSKMDFLGHGTAIRVFQLMLMFSTPLFVFISEFLLAKNYQVKTKPGFFKNKLIYLGIPYIIINIGIALFYFESKTFDQFMTHLGDTMFHGGAVTYFIVIIFQFYILHILFAKYLIKWKPVPVIIGAVIFATIYWAFRQYAPQSEHPILGLFWEREGWMLFLGWISYFLLGFYTGIYYETFMKKIKKYTWPIIIGAIIATSILVDNYLFGISTWVESKRFDIPFYVKMVILVFFLFASYVKYVPKFILFISNYSFCIYLIHYFFVHELGLLRAASSLRNIAFNFIITLTVSICLAYIFNLSKYGKFIVGGIGHIKYDKVYESYKHGKMD”: the protein production entry was “failed”.
Next, “MTTHHETYTAPPFGPALMLNAFAPSRGWNPKDGFPDFSFIWRGYQISPAALATLQRAAGRDDAATADRLILLAPHVTGFRLTMALLMCRDWPLPIWRALQLRNRLIRSGDIKLDAASDLIVRAIGWRVHDKGIELDVLAQLMQGGDCPWQSITTFYYRGRFDGPASHGADDGAPMASPPIDPSLPPMTQWTVDGGERLRWAALTGDYNPLHLVDIYARATGFAAASAHPQRIAAQCLGHLAPTPEHPTQLDLWLKGPVYFGRSASLREASNDDGTTFGLWIDGDDRPAMVGVMR”: “failed”.
Next, “MTSLRRRCIRQVPNTLTVGRFALVPVAAGFIWTGDLRAAFWVFVAAGITDALDGWLARVLDARTALGATLDPLADKALLVATFFTLALTGAIPLWLLGLVALRDALILAGFAWLRLRAGRPIRVTPNILGKANTLAQILLCAAVIGASAFTLDLSAVIAVLTPVVAATTIISGIAYLRMWLRRGWDGQQAHDRIERTRRNNQQRDDR”: “failed”; “MSTNYIDCQLLNKMERQPSFSSFDCGDPFLDSFAPKKLANADANNDSRVYVAVDGDIGVGYATMKVFMLSNDEYKILSGKYPRQVPVVMLDQIAVDKAYQGKGIGKRLMRKVLEATVLVNELAAAKGLALWAHPRAKDFYESLGFEAIPDATKQVQDVELTLMFIHVETILDALK”: “failed”; “MTFSAPAPTQLDPVVRHLYVHVPFCPSICPYCDFHVLTRQAGLVERYLERLEQEAAELAAAYAVDLDTVYLGGGTPSFLRDHELRALVESVQRHLGWGRAENTLEINPGTVSTERAALWRSLGFDRASVGVQSLDDATLKFLGRRHDARQARDAVSRLIAQDFRVSGDLITAVPGQPLDSDIHGLVELGVGHVSAYTLTIEPGTEFARRGVQVDEDAEREGFERTEELLAGHGFSRYEVSNYARAGQESRHNLSYWQGKTYLGLGPGAAGHYPVPTPGADALTLRRTNPHLHDWLVGQQGETLLVDPHEYVTDALFMGLRLRRGLDLADLTRRSGVDVAGRYGLVIERQVRLGLLEHSGTNLRATAQGWWVLNRIVREFMEVDAAETA”: “failed”.
Next, “MIQEKHLTFTINLLVSLFFLTILIIPKGYNYAPIILSAIGLIYFIPLKKKLSFSSEDKKLIFSFLFYFFTFLLSIIINKDGIREIDNPSRLLLFIPLLLLFKNFPIKRKTILYAIPSSALITGCVALFQKFALGYEKPFPETMHIQMGNIAISLATFSIVITLHFFIKKQYKSTLFGFVAIILAIMTSALSGARGGWIGLPVVVGIILFLYKEFINKKLIITLIAIITIGLTALITSPKFGIEKRYNAAKSDIVSYLEKNNRNTSLGARFDMWENALIAIKEAPIFGHGSDGYDEFRHKQVKSKQMAKTTLNFGSLHNQYLESWVKRGLVGFIALILIILTPIFYFIKNLNTHNLETKCICILGIIHIVSHIFYFTSQSFLAHNSGNIFYFSAMLCFIV”: “failed”; “MGSYQLLVPPPEALSKPLSVPTRLLLGPGPSNLAPRVLAAGSLRMIGHMQKEMLQIMEEIKQGIQYVFQTRNPLTLVVSGSGHCAMETALFNLLEPGDSFLTGTNGIWGMRAAEIADRIGARVHQMIKKPGEHYTLQEVEEGLAQHKPVLLFLVHGESSTGVVQPLDGFGELCHRYQCLLLVDSVASLGGVPIYMDQQGIDIMYSSSQKVLNAPPGISLISFNDKAKYKVYSRKTKPVSFYTDITYLAKLWGCEGETRVIHHTTPVTSLYCLRESLALIAEQGLENCWRRHREATAHLHKHLQEMGLKFFVKDPEIRLPTITTVTVPAGYNWRDIVSYVLDHFSIEISGGLGPTEERVLRIGLLGYNATTENVDRVAEALREALQHCPKNKL”: “not failed”; “MTQPNIIMTRVDERLIHGQGQLWVKFLNCNTVIVANDAVSEDKIQQSLMKTVIPSSIAIRFFSIQKVIDIIHKASPAQSIFIVVKDLQDAKLLVEGGVPITEINIGNIHKTDDKVAITQFISLGETDKSAIRCLAHDHHVVFNTKTTPAGNSASDVDILDYI”: “not failed”.
For the sequence “MKEIKEITKKDVQDAEIYLYGSVVEGDYSIGLSDIDVAIVSDVFEDRNRKLEFFGKITKKFFDSPFEFHILTKKEWKMSKRFIRKYRRLDLIT”, the protein production result was “not failed”.
With “GEGTDAIQALIQAYFTAWNTNAPERFAEIFWPDGSWVNVVGMHWRGRDQIVFAHTAFLKTIFKDCKQELVTIEARTIAPGSALAVVTLIQDAYVTPDGRQMPRAHDRLTLLAVEREGVWRFIHGHNTIVNPDAANNDPVLRMKPA”, the protein production entry is given as “not failed”.
As to “MPIEIITDSGADLPQSYIREHRIAFLPLVVHWNGQDYKDGITIEPKQVYDAMRQGHTVKTAQPSPLAMKELFLPYAKENRPCLYIAFSSKLSGTYQTAMAVRSELLDEYPEFRLTIIDSKCASLGQGLAVMKAVELAKQNTPYNLLCETIESYCRHMEHIFTVDNLDYLARGGRISKTAAAFGGLLNIKPLLHVEDGALIPLEKWRGRKKVLKRMVELMGERGDDLQKQTIGISHADDEETALELKQMIEETHGCTRFFLSDIGSAIGAHAGPGTIALFFLNKYIEI”, the protein production result is on record as “not failed”.
Next, “MDVKTAAALHRLRLISLPEAISFPILLVCSVLKRTTEFDAVFPMGLIHGLLFTFYVIFWADAWNRAKWSKKKAAGYFLLAIPPFGGLFAERKLKREAEDAVIASRARREGTVNA”: “failed”.
